Results taken from publication doi:10.1101/2023.03.31.534734 (bioRxiv, 2023).

Biological target: recombinant, non-biotinylated HLA-A*01:01 (α-chain, β2m, peptide […]) (Homo sapiens, HLA-A*01:01; peptide from …, strain)
Assay: crystal structure

- binding result: binds
B1: Fab of rmAb E07 (Fab, V domains shown)
VH: QVQLQESGGGVVQPGGSLRLSCAASGFNFSNYGMHWVRQTPGKGLEWVASIPYDGSHQWHADSVKGRFTISRDNSKNTLYLQINSLRPEDTAMYYCSKARISYLSAPAWWFDPWGQGTLVTVSS
VL: QSVSTQPPSVSVAPGQTARITCGGNNIGSKSVHWYRQKPGQAPVLVVYDNNARPSGIPERISGSNFANTATLTISRVEAGDEADYYCHVWDSSSDHVVFGGGTKLTVL
